Here are results for 68 sequences from the domain aggregation screens of Martell et al. (2025).

The data set in a line: soluble fraction after stress (log2 fold change); higher = more stays soluble; pooled small domains, quantitative proteomics. The note with it: stress: 50 degC. In outline:
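Each library was heated to 50°C as a stress step. The libraries, made up of small protein domains, were pooled and analysed at high throughput by quantitative proteomics. The reported value is the base-two logarithm of the fold change in each protein's soluble amount after stress, taken as a measure of aggregation propensity. The higher the value, the more protein stays in solution.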
Regarding “HMNNLKTKELSKIGYTNDKARSLVISIIPKHFKYHSKSEIIELLTNIKNKPEDYVSDEILGKIAETFMEKI”, the “soluble fraction (log2)” value is -0.215.
In the case of “HMSVLQGLIESFKAGDRNLYEVAERLNVTEPFLAEALKDYRARFPKGVQVDNFWISFRPYLTIAEV”, the “soluble fraction (log2)” value is -1.41.
As for “HMNEYIVSAEQEGMRLDVFLTEQMEGSRSYIQSLIKGGHVTVGDKVGKANLRLTPDTVIHVEIPEPE”, the figure is 0.0524.
Consider “HMDIRMLLSDREEEIMILLSKGLSISEAANRMQIGQASAATYLNRARRKLKAETVRQAVAIWTGD”, for which the “soluble fraction (log2)” value was -1.75.
Consider “HMLNSISIKTNKKIDFLEKNEHLVNFVYEKETMEHIYNLSYENKKDLQELQNKLSDIEGIIKINTDL”, for which the “soluble fraction (log2)” value was found to be 0.133.
Take “HMAGDDEIEKIAQDILAAWPDKVAAYQAGNKGLMGLFMGELMKKSQGKANPKVASGIIQKLLD”: the “soluble fraction (log2)” value is 0.0445.
Turning to “HMQKADFDYGDYVDLGLAMGRQSRQLREAVGIKLGIGYANSKRFYQRLQTFGISLAELKQAVEEAENDQQN”, the “soluble fraction (log2)” value was -0.735.
For the sequence “HMDNIKRGEMFYISRGGASYSGSEQHSDRPAVVVSNDKNNENSNVVEVVYMTTQPKTDLPTHVTVR”, the “soluble fraction (log2)” value came out at 0.0894.
Consider “HMFGSKDVKRAIEDYAAAMSSQPRALSAPQRKVLIRHLATSGLLQLRGAAKIVADELGISRASVYNALKV”, for which the “soluble fraction (log2)” value was -0.436.
For the sequence “HMDGISANAVKALIESLIAGEDKRKPLSDQAMSDRLALQGIVLARRTVAKYREELNFPPAHQRKQK”, the “soluble fraction (log2)” value is -0.572.
In the case of “HMGKAYMVPDVKNKSVNQAQLLLADKHMNGVVVDSSYVKELPAGIVLDQTPVGGMKVKEGRTVYLTINSD”, the “soluble fraction (log2)” value was -0.0262.
As to “HMAPNVEENSKLIGEIGMTLTPLRPSGIATINNRRVDVVSNGDFIDQDERVMVKRVQGARVVVIPV”, the “soluble fraction (log2)” value was found to be 0.109.
As to “HMAQSEDLMVMAQRILGGPEAQSFFQAEATRQGLAGFLPEPIPDFLQRLERKLSGSVGSATAHAMVAQTMG”, the “soluble fraction (log2)” value was -0.179.
On to “HMDFYVILGVDRAASLSDVKRAYRRLARKHHPDINPGDPESDAFFMRVTEAYETLVDPDRRQEYDEHG”, for which the “soluble fraction (log2)” value is -1.03.
Next, “HMEQISIETRIEQLLARLSETEASGFEELFADTSSRADLITTFLALLEMIRLKLVRVFQDGSFGPIRIYKR”: -0.27.
As for “HMKNNYQYIVDQIKQLILDGELIVGDRLPSERDLSEMYQVSRASVREALKALETIGLLESRHGGGNYIVNH”, the figure is -0.671.
On to “HMYVVLYPGMARDEAVQVMNELQSRGIDYYEKNGNIYVPKTDENSLRMELANLGYPKTTNNYD”, for which the “soluble fraction (log2)” value was found to be 0.0519.
Turning to “HMPLITAIELDSISARSFQFNTQSGSTYFIEGSTDLKSWDVIAEVKATDSTTTYEDHRKIYHEAYFYRVRL”, the “soluble fraction (log2)” value was -2.01.
Next, “HMKDANIQIGKRLREARLNMNLEKSEIADVLGVTVEHYRKLEAGVMGISVDKVLTLYHKYGIDPTYLITG”: -1.19; “HMTKLLSALQADKFAKKLANDTNFGSNFARMGESAMDFTNRLVEELQRDEGKVANYMPYLTKLGF”: 0.312; “HMNDRLFQILYLLLEKGTMTAPELSRALEVSVRTIYRDIDALSLAGVPVYATQGKNGGVSLLPNY”: -1.24.
For “HMAPMYGEFENVRLTDAQLDKLNARFPPEQVQREIEALSGYMRSKGKRYADHYATLLNWLRRDFPP”, the “soluble fraction (log2)” value was -0.202.
Next, “HMGNWEQQLRSWADGELATGKQDILTTAVPAFERALIETALSHTNGRKRDAAELLGWGRNTLTRKLKELGM”: -0.371; “HMSADDSDDRKGIDAWLTQLLANGSVKATEVYSAADAAGYSKDQAKRAKRRLAIEAVREAMDGPWFWRLD”: -0.616.
Take “HMKFNLWLSEKLKKLGLTQRKLAEQAGVSPATVSRWLSGEFEPDLTNLRKINQVLGVPERELFLQLGL”: the “soluble fraction (log2)” value was found to be 0.154.
For “HMVVVPPPATPKPGDVTGDNKINGYDLSILLSNWKRPGATLAQGDLNKDGVVNGLDLSIMLLNWG”, the “soluble fraction (log2)” value was -0.0393.
As for “HMGAKEHLAGETLRMAVELLSEKQGIPAEQALIRFISSPVYDALYDLDTGMWTQGPTRLLEAFEALE”, the figure is -1.7; as for “HMKDEGSLKVIGQMVVIGIPQSEAKRFANTYTVAQIRAALQYTQKRSEDKNASKLENVAAYFRQALVRNWG”, -1.36; as for “HMLMRSPDFLIGWFQNLVAKRETFNDQVQAKNLIEAGKQHIQGEDFDRLLEVNRRLFSLLPQREQE”, 0.215.
As for “HMIDTPQELARLLRLLDEQNFEAEILFHKLRPDLLHLWSKEHVTRIAEALDAFDYQMALTLLNASP”, the figure is -2.23; as for “HMNQEQQSAVMSALKATLPDLEAALEARQFKESKQLLKTAQNQFQQLDGRNRRGFQARIQLLAGQFRELS”, -0.227.
“HMTTKYMVLVNWVKEKVRTNELKTGEKLYSEHEFSRMFHMSRQTVRHGISILERENIVERRQGSGTFIKDA”: the “soluble fraction (log2)” value is -3.06.
On to “HMADPAVLIAELFRAMPEKRFSVKNLISATGAETREQKDYVREVVHSLSREGMIEQVAEGKYRLSASE”, for which the “soluble fraction (log2)” value was 0.171.
Next, “HMRNAAGGIYGWMTLHQVAETVKLTEEEVIAITNLPAGIPRDVSLKNIEGVNDEELRALLEAYLEKQ”: -0.151.
As for “HMGTRPAYAADAPNPQKRFIYHRIVDQLRNKATGAPISYRAIAAETGVSVQTVINIKNRMNQMLSEK”, the figure is -0.0598; as for “HMNYYYKDNQYWYVGFRYDERLVKEIKRFVGAGYNPENKEWYIPFTLPTVAPLQKWLHDNGFVEGMNYYP”, -1.86.
With “HMNADLDIQNVNGNTPLWEAVMRYRGDGFFIEQLLKNGANPDIKNNYGVSPKSLARTIANYDVRRFFN”, the “soluble fraction (log2)” value was -0.137.
Turning to “HMTHPAHLARIGALIRSARQHEGLTQAQLAELLGTSQSAIHRIEQGGQNITLDMLTRISAALDSEIVTIG”, the “soluble fraction (log2)” value was -0.921.
In the case of “HMSGPVITEERNIANALISGLANMKETPTREQVERKAQQIAELFGYTGDLRNIITEAMISVDT”, the “soluble fraction (log2)” value turned out to be 0.059.
For the sequence “HMEDYYKILGVQSNSNPDDIKKAYRKLSLKHHPDRGGDASEFKKINEAYQTLGTPEKRKMYDMQQNN”, the “soluble fraction (log2)” value was -0.0117.
Take “HMEGVSPQTVQEHIRRFIAAEDPASPLSDEALREALGNLGINASRRTVAKYRGEMGIPSSAQRKR”: the “soluble fraction (log2)” value is -0.053.
Take “HMEMKVIPFNQMTRDQFDQLDRFLGRLAAAQAMGSLRLTKAQQNYFLNQVKQLDLYRKRILN”: the “soluble fraction (log2)” value is -0.787.
On to “HMAEPLMTQIVEIEYADAEGLRENLEQFLTRLDEKTLLGSVLVDRHTNSLIIQAVRSDLERMLPLIETLDR”, for which the “soluble fraction (log2)” value is -0.731.
As for “HMSQQVVTDGVNLRLRYAPSPDAETYKWADGTNRHPEKGERFPYLGDIGDFYRIDYKGLVLYVSKQHTHL”, the “soluble fraction (log2)” value was -1.85.
Regarding “HMGPTLTDEEEVVLNLLEKNHPVLLSELKENAGLSNKKWDKAIKGLSAHKLAKVTKTDDGLFVHLS”, the “soluble fraction (log2)” value amounted to 0.0395.
As for “HMKDPSFELMSVAESFYRSGNVDHAVYALEKYLEVYADGDYTDRAHDLLSQARKGLTYPHGYPPLQI”, the “soluble fraction (log2)” value was -1.21.
For the sequence “HMGRWQPSTSAKQHGESALLLERLLHLERLTVSEAFHVLTINHRLNLSLPEYRSLLAVVQLPK”, the “soluble fraction (log2)” value is -1.57.
“HMRKVVLEEKEANYYAEPNSESELLGVLKRGIHLTVTDVKKEAGSDGWVKLVHPDGQEGWISGRARIRV”: the “soluble fraction (log2)” value is -0.0551.
Next, “HMGIKLSDRQMQIVEIVKSQQPITSEQVAERLNLTRAALRSDLSILTMAGILEARPKVGYSLTGR”: -0.334; “HMLEEIIDVKRFLVENVRGVSEKTALAILSEFGDKTMDVLRNSPNELYRIKGMSGKRIEVIKDAIANATAS”: -0.275; “HMLSKEFRFFTYLLESYAQHKNTTAGAVLKTLDEKGLTDFVYKMYDLYHVEAIENAYMDLDSLIATGKPA”: -2.98.
As to “HMNIDEIIGKKAVVIESIDNLQGTGKVRYQGMEWTARAEEENDRIEKDAEVEIIAVKGVKLIVKMK”, the “soluble fraction (log2)” value is -0.13.
Next, “HMEEITLIAEDEGLRLDTWLTDKLKDYSRSYIQKLMEDELVLVNGKARKANYRIKTGDEIHVSIPEPE”: -0.0342; “HMTPVEVNARGVHVDFSKGGILLEDVVRHLILEALRASEWKRGPAAQLLGISKETLRYRMEKYRLYPP”: -2.26; “HMDLRVKRTNKMIMEAFIHLVEQKGYDNITVQEIADEAMINRATFYAHFKDKQDLYDHIFKQAI”: -0.762.
On to “HMKTRIQDLRKELGVTQSELADAVDVTRQTIISLEGGRYKASLVLAHKLAQFFHVTIEELFIFD”, for which the “soluble fraction (log2)” value is -2.21.
Take “HMDNEVTIAVQVNGKLRDKLIVALDTPNEKIEQLALALPKVIQNTSGLTVRKVIVIPNRLVNIVA”: the “soluble fraction (log2)” value was -0.171.
With “HMKALHEEIAEKIQEQILRSNLAPGDKLDTELELAARYGVSRSTIRQALIQLESAGLIDRLHGRGTFVAD”, the “soluble fraction (log2)” value stood at 0.425.
Turning to “HMSDRFVRIVMNDGTVKLGQMISEDADFIRLKTNNLGELNIPKYLVLDMMDLTRSEYVRLSISNAG”, the “soluble fraction (log2)” value came out at 0.169.
In the case of “HMPEQLLNTRIPLEFAGRRFDASLAELFPDYSRSRLAAWIKDGAARLDGETVAPRHTVRGGEQVEILVRM”, the “soluble fraction (log2)” value was -0.238.
For “HMTPTRQATVSVAALNVREQPSLQGRRLGKLTQGTTLTVVGPPGEWLKIEYKGETGFVYASYTSLG”, the “soluble fraction (log2)” value is -1.59.
On to “HMEPEVEITYFKPDERKAGGAYVTVTGAVIKVDDFERLITMQDGTKIPMDDILSIDGELFLS”, for which the “soluble fraction (log2)” value was -0.333.
Turning to “HMLSKGDRVSWDTPQGRTQGEVVEKKTKDFEHDGQKFTASDDDPAFIVKSEKSGAEAAHKGSALNK”, the “soluble fraction (log2)” value was 0.0884.
Next, “HMETTVSYSGVVTASVLRIRKGPSVSSSVAGTLKKGTGVSIIFEDNGWGKLADGSGWVSLTYIKKNSTP”: -0.302; “HMKPFVVVPIDQVRVGMFIQLDLGWMQHPFPVGSFRVASEAQIDTLRSLDLESVRYLPAKSDPAFQQP”: -2.1.
Turning to “HMSGKWKIRILWYIAEYEVQRFGELRRRLGDITQSTLTEQLRELEQDGFVSRYVYQEVPSKVEYSLTE”, the “soluble fraction (log2)” value turned out to be 0.143.
In the case of “HMPSSIEGIEKYLGSGMIRGIGAVYAKRLVKQFGKDVFDIIEETPERLREVEGIGPIRAARIISGWADQ”, the “soluble fraction (log2)” value was -0.41.
As for “HMPVEHVWHIAENGQTSGPYSKARMGRMAQEGQLTRDTHVWTPGQDGWMRAGDVTELAQLFT”, the “soluble fraction (log2)” value was 0.0486.
